Tests used:
Test in all cases: PIE-FCCS
[1] = molecular target: the molecule itself
[2] = molecular target: T1, Plexin A4ΔSema (human, UniProt Q9HCM2 24-1894, deletes residues 39-506)
T1 sequence (looked up): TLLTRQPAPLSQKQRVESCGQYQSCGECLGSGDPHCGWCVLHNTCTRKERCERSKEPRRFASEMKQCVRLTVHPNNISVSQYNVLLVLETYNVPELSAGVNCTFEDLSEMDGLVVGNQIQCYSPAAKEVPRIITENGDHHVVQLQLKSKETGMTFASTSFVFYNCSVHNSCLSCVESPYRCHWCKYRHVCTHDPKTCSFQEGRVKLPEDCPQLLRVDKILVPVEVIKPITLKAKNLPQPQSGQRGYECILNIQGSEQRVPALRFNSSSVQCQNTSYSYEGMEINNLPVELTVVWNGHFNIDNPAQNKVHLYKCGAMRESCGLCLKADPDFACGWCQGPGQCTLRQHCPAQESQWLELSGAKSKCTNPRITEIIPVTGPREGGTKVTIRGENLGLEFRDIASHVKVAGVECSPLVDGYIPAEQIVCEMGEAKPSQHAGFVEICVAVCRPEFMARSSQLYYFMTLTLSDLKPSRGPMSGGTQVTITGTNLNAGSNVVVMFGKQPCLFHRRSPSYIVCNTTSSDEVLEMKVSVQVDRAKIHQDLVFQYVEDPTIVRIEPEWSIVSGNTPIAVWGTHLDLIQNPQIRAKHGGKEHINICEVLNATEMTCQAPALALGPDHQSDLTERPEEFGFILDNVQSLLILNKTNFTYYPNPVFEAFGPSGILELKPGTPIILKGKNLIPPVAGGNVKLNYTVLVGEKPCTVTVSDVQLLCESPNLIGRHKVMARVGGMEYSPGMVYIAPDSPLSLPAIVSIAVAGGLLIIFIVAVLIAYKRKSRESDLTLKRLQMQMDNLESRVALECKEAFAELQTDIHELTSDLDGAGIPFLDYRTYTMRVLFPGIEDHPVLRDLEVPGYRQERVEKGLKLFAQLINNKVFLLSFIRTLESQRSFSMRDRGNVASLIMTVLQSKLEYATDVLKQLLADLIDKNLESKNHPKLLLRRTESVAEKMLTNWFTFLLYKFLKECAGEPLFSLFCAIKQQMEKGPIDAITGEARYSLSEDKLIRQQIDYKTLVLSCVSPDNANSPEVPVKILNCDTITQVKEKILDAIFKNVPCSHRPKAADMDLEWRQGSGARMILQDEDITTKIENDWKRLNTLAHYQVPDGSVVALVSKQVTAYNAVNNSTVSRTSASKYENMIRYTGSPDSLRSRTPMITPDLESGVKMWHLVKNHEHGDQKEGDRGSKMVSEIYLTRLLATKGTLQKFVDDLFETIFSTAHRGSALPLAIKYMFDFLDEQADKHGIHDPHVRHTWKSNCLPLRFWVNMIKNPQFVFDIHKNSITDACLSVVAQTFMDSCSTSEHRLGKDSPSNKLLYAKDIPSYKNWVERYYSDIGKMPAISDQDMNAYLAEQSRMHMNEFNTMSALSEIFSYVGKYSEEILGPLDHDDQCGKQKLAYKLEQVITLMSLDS

[3] = molecular target: Plexin A4 (human, UniProt Q9HCM2 24-1894)

B1: Plexin A2 (receptor, human, UniProt O75051 35-1894, looked up)
chain: MPQFSTFHSENRDWTFNHLTVHQGTGAVYVGAINRVYKLTGNLTIQVAHKTGPEEDNKSCYPPLIVQPCSEVLTLTNNVNKLLIIDYSENRLLACGSLYQGVCKLLRLDDLFILVEPSHKKEHYLSSVNKTGTMYGVIVRSEGEDGKLFIGTAVDGKQDYFPTLSSRKLPRDPESSAMLDYELHSDFVSSLIKIPSDTLALVSHFDIFYIYGFASGGFVYFLTVQPETPEGVAINSAGDLFYTSRIVRLCKDDPKFHSYVSLPFGCTRAGVEYRLLQAAYLAKPGDSLAQAFNITSQDDVLFAIFSKGQKQYHHPPDDSALCAFPIRAINLQIKERLQSCYQGEGNLELNWLLGKDVQCTKAPVPIDDNFCGLDINQPLGGSTPVEGLTLYTTSRDRMTSVASYVYNGYSVVFVGTKSGKLKKIRADGPPHGGVQYEMVSVLKDGSPILRDMAFSIDQRYLYVMSERQVTRVPVESCEQYTTCGECLSSGDPHCGWCALHNMCSRRDKCQQAWEPNRFAASISQCVSLAVHPSSISVSEHSRLLSLVVSDAPDLSAGIACAFGNLTEVEGQVSGSQVICISPGPKDVPVIPLDQDWFGLELQLRSKETGKIFVSTEFKFYNCSAHQLCLSCVNSAFRCHWCKYRNLCTHDPTTCSFQEGRINISEDCPQLVPTEEILIPVGEVKPITLKARNLPQPQSGQRGYECVLNIQGAIHRVPALRFNSSSVQCQNSSYQYDGMDISNLAVDFAVVWNGNFIIDNPQDLKVHLYKCAAQRESCGLCLKADRKFECGWCSGERRCTLHQHCTSPSSPWLDWSSHNVKCSNPQITEILTVSGPPEGGTRVTIHGVNLGLDFSEIAHHVQVAGVPCTPLPGEYIIAEQIVCEMGHALVGTTSGPVRLCIGECKPEFMTKSHQQYTFVNPSVLSLNPIRGPESGGTMVTITGHYLGAGSSVAVYLGNQTCEFYGRSMSEIVCVSPPSSNGLGPVPVSVSVDRAHVDSNLQFEYIDDPRVQRIEPEWSIASGHTPLTITGFNLDVIQEPRIRVKFNGKESVNVCKVVNTTTLTCLAPSLTTDYRPGLDTVERPDEFGFVFNNVQSLLIYNDTKFIYYPNPTFELLSPTGVLDQKPGSPIILKGKNLCPPASGGAKLNYTVLIGETPCAVTVSETQLLCEPPNLTGQHKVMVHVGGMVFSPGSVSVISDSLLTLPAIVSIAAGGSLLLIIVIIVLIAYKRKSRENDLTLKRLQMQMDNLESRVALECKEAFAELQTDINELTSDLDRSGIPYLDYRTYAMRVLFPGIEDHPVLRELEVQGNGQQHVEKALKLFAQLINNKVFLLTFIRTLELQRSFSMRDRGNVASLIMTGLQGRLEYATDVLKQLLSDLIDKNLENKNHPKLLLRRTESVAEKMLTNWFAFLLHKFLKECAGEPLFMLYCAIKQQMEKGPIDAITGEARYSLSEDKLIRQQIEYKTLILNCVNPDNENSPEIPVKVLNCDTITQVKEKILDAVYKNVPYSQRPRAVDMDLEWRQGRIARVVLQDEDITTKIEGDWKRLNTLMHYQVSDRSVVALVPKQTSSYNIPASASISRTSISRYDSSFRYTGSPDSLRSRAPMITPDLESGVKVWHLVKNHDHGDQKEGDRGSKMVSEIYLTRLLATKGTLQKFVDDLFETLFSTVHRGSALPLAIKYMFDFLDEQADRHSIHDTDVRHTWKSNCLPLRFWVNVIKNPQFVFDIHKGSITDACLSVVAQTFMDSCSTSEHRLGKDSPSNKLLYAKDIPSYKSWVERYYADIAKLPAISDQDMNAYLAEQSRLHAVEFNMLSALNEIYSYVSKYSEELIGALEQDEQARRQRLAYKVEQLINAMSIES
[1]
  median fraction correlated (fc): 0.09
  stoichiometry N: 2
[2]
  median fraction correlated (fc): 0.23
[3]
  median fraction correlated (fc): 0.08

Source: paper doi:10.1101/2021.02.18.431813 (bioRxiv, 2021)
